Experimental data: patent WO2016071355A1 (dated 2016)
One block for each binder: values may come before it.

Tests used:
[1] = molecular target: T1, human CD38 peptide-Fc fusion F8 (human, UniProt P0DOX5 223-449 = IgG part); assay: SPR, antibody immobilized, peptide-Fc injected at 15 nM and 200 nM
[2] = molecular target: T2, human CD38 peptide-Fc fusion F3 (human, UniProt P0DOX5 223-449 = IgG part); assay: as above
T2 construct: doubtful; also called F3 construct

[3] = molecular target: T3, human CD38 peptide-Fc fusion F12 (human, UniProt P0DOX5 223-449 = IgG part); assay: as above
[4] = molecular target: T4, human CD38 peptide-Fc fusion F18 (human, UniProt P0DOX5 223-449 = IgG part); assay: as above
[5] = molecular target: T5, human CD38 peptide-Fc fusion F9 (human, UniProt P0DOX5 223-449 = IgG part); assay: as above
[6] = molecular target: T6, human CD38 peptide-Fc fusion F16 (human, UniProt P0DOX5 223-449 = IgG part); assay: as above
[7] = molecular target: T7, human CD38 peptide-Fc fusion F19 (human, UniProt P0DOX5 223-449 = IgG part); assay: as above
[8] = molecular target: T8, human CD38 peptide-Fc fusion F1 (human, UniProt P0DOX5 223-449 = IgG part); assay: as above
[9] = molecular target: T9, human CD38 peptide-Fc fusion F2 (human, UniProt P0DOX5 223-449 = IgG part); assay: as above
[10] = molecular target: T10, human CD38 peptide-Fc fusion F5 (human, UniProt P0DOX5 223-449 = IgG part); assay: as above
[11] = molecular target: T11, human CD38 peptide-Fc fusion F11 (human, UniProt P0DOX5 223-449 = IgG part); assay: as above
[12] = molecular target: T12, human CD38 peptide-Fc fusion F4 (human, UniProt P0DOX5 223-449 = IgG part); assay: as above
T12 construct: doubtful

[13] = molecular target: T13, human CD38 peptide-Fc fusion F14 (human, UniProt P0DOX5 223-449 = IgG part); assay: as above
[14] = molecular target: T14, human CD38 peptide-Fc fusion F13 (human, UniProt P0DOX5 223-449 = IgG part); assay: as above
[15] = molecular target: T15, human CD38 peptide-Fc fusion F10 (human, UniProt P0DOX5 223-449 = IgG part); assay: as above
[16] = molecular target: T16, human CD38 peptide-Fc fusion F15 (human, UniProt P0DOX5 223-449 = IgG part); assay: as above
[17] = molecular target: T17, human CD38 peptide-Fc fusion F17 (human, UniProt P0DOX5 223-449 = IgG part); assay: as above
[18] = molecular target: T18, human CD38 peptide-Fc fusion F20 (human, UniProt P0DOX5 223-449 = IgG part); assay: as above
[19] = molecular target: T19, human CD38 peptide-Fc fusion F7 (human, UniProt P0DOX5 223-449 = IgG part); assay: as above
[20] = molecular target: T2, human CD38 peptide-Fc fusion F3; assay: SPR
[21] = molecular target: T20, human CD38 peptide-Fc fusion F6 (human, UniProt P0DOX5 195-449 = IgG part); assay: SPR
[22] = molecular target: T21, soluble extracellular region of cynomolgus monkey CD38 antigen fused to a 6-His-tag (cynomolgus monkey, UniProt Q5VAN0 45-301); assay: SPR
T21 construct: also called cynomolgus CD38

[23] = molecular target: T1, human CD38 peptide-Fc fusion F8; assay: SPR, antibody immobilized, peptide-Fc injected at 1000 nM
[24] = molecular target: T2, human CD38 peptide-Fc fusion F3; assay: as above
[25] = molecular target: T3, human CD38 peptide-Fc fusion F12; assay: as above
[26] = molecular target: T4, human CD38 peptide-Fc fusion F18; assay: as above
[27] = molecular target: T5, human CD38 peptide-Fc fusion F9; assay: as above
[28] = molecular target: T6, human CD38 peptide-Fc fusion F16; assay: as above
[29] = molecular target: T7, human CD38 peptide-Fc fusion F19; assay: as above
[30] = molecular target: T8, human CD38 peptide-Fc fusion F1; assay: as above
[31] = molecular target: T9, human CD38 peptide-Fc fusion F2; assay: as above
[32] = molecular target: T20, human CD38 peptide-Fc fusion F6; assay: as above
[33] = molecular target: T10, human CD38 peptide-Fc fusion F5; assay: as above
[34] = molecular target: T11, human CD38 peptide-Fc fusion F11; assay: as above
[35] = molecular target: T12, human CD38 peptide-Fc fusion F4; assay: as above
[36] = molecular target: T13, human CD38 peptide-Fc fusion F14; assay: as above
[37] = molecular target: T14, human CD38 peptide-Fc fusion F13; assay: as above
[38] = molecular target: T15, human CD38 peptide-Fc fusion F10; assay: as above
[39] = molecular target: T16, human CD38 peptide-Fc fusion F15; assay: as above
[40] = molecular target: T17, human CD38 peptide-Fc fusion F17; assay: as above
[41] = molecular target: T18, human CD38 peptide-Fc fusion F20; assay: as above
[42] = molecular target: T19, human CD38 peptide-Fc fusion F7; assay: as above
[43] = molecular target: T22, soluble extracellular region of human CD38 fused to a 6-His-tag (human, UniProt P28907 43-300); assay: SPR, equilibrium response, antibody captured on protein G
T22 construct: also called human CD38 extracellular domain with a poly-histidine tag; human CD38 antigen

binding result [1]: no binding (tested: 200 nM) | binding result [2]: no binding (tested: 200 nM) | binding result [3]: no binding (tested: 200 nM) | binding result [4]: no binding (tested: 200 nM) | binding result [5]: no binding (tested: 200 nM) | binding result [6]: no binding (tested: 200 nM) | binding result [7]: no binding (tested: 200 nM) | binding result [8]: no binding (tested: 200 nM) | binding result [9]: no binding (tested: 200 nM) | binding result [10]: no binding (tested: 200 nM) | binding result [11]: no binding (tested: 200 nM) | binding result [12]: no binding (tested: 200 nM) | binding result [13]: no binding (tested: 200 nM) | binding result [14]: no binding (tested: 200 nM) | binding result [15]: no binding (tested: 200 nM) | binding result [16]: no binding (tested: 200 nM) | binding result [17]: no binding (tested: 200 nM) | binding result [18]: no binding (tested: 200 nM) | binding result [19]: no binding (tested: 200 nM)
B1: humanized 9G7 antibody (best-fit version) of Example 10 (antibody, human IgG1, kappa, V domains shown)
VH: QVTLKESGPTLVKPTQTLTLTCTFSGLSLSTSGKGVGWIRQPPGKALEWLAHIWWDDDKRYNPALKSRLTITKDTSKNQVVLTMTNMDPVDTATYYCARIELGRSYVMDYWGQGTLVTVSS
VL: DIQMTQSPSSLSASVGDRVTITCQASQDVITSVAWFQQKPGKAPKLLIYSASYRYTGVPSRFSGSGSGTDFTFTISSLQPEDIATYYCQQHYTIPLTFGQGTKLEIKR
notes: also called h9G7

binding result [20]: no binding | binding result [21]: binds
B2: SAR650984 antibody (antibody, human IgG1, kappa, V domains shown)
VH: QVQLVQSGAEVAKPGTSVKLSCKASGYTFTDYWMQWVKQRPGQGLEWIGTIYPGDGDTGYAQKFQGKATLTADKSSKTVYMHLSSLASEDSAVYYCARGDYYGSNSLDYWGQGTSVTVSS
VL: DIVMTQSHLSMSTSLGDPVSITCKASQDVSTVVAWYQQKPGQSPRRLIYSASYRYIGVPDRFTGSGAGTDFTFTISSVQAEDLAVYYCQQHYSPPYTFGGGTKLEIKR
notes: also called humanized SAR650984 antibody

Kd [22]: ~1200 nM | binding result [23]: no binding (tested: 1000 nM) | binding result [24]: binds | binding result [25]: no binding (tested: 1000 nM) | binding result [26]: no binding (tested: 1000 nM) | binding result [27]: no binding (tested: 1000 nM) | binding result [28]: no binding (tested: 1000 nM) | binding result [29]: no binding (tested: 1000 nM) | binding result [30]: no binding (tested: 1000 nM) | binding result [31]: no binding (tested: 1000 nM) | binding result [32]: no binding (tested: 1000 nM) | binding result [33]: no binding (tested: 1000 nM) | binding result [34]: no binding (tested: 1000 nM) | binding result [35]: no binding (tested: 1000 nM) | binding result [36]: no binding (tested: 1000 nM) | binding result [37]: no binding (tested: 1000 nM) | binding result [38]: no binding (tested: 1000 nM) | binding result [39]: no binding (tested: 1000 nM) | binding result [40]: no binding (tested: 1000 nM) | binding result [41]: no binding (tested: 1000 nM) | binding result [42]: no binding (tested: 1000 nM) | Kd [43]: ~300 nM
B3: human 767 antibody (antibody, V domains shown)
VH: QVQLVESGGGLVQPGGSLRLSCAASGFTFSSYWMSWVRQAPGKGLEWVANIKQDGSEKYYVDSVKGRFTISRDNAKNSLYLQMNSLRAEDTAVYYCAREGRTGYFDYWGQGTLVTVSS
VL: QSVLTQPPSASGTPGQRVTISCSGSTSNIGTNYVYWYQQLPGTAPKLLIYRNDQRPSGVPDRFSGSKSGTSASLAISGLRSEDEADYYCAAWDDSRSGVYAFGTGTKVTVLR
notes: Human IgG1
